Patent US20110105733A1 (Ablynx, published 2011)
Values belong to the binder of their own block, whether it stands above or below them.

Legend:
[1] = molecular target: human Notch-2 (R&D Systems Cat #3735-NT-050), Notch-2-Fc fusion (human) (UniProt Q04721); assay: ELISA: human Notch-2 coated at 2 ug/mL, Nanobody series 25 pM-2000 nM, detection by rabbit anti-VHH and DAMPO, OD 490 nm
human Notch-3 = molecular target: T1, human Notch-3 (human, UniProt Q9UM47 40-467, limits assumed); assay: ELISA: human Notch-3 coated at 2 ug/mL, Nanobody series 25 pM-2000 nM, detection by rabbit anti-VHH and DAMPO, OD 490 nm
T1 construct: Construct not described
T1 sequence (looked up): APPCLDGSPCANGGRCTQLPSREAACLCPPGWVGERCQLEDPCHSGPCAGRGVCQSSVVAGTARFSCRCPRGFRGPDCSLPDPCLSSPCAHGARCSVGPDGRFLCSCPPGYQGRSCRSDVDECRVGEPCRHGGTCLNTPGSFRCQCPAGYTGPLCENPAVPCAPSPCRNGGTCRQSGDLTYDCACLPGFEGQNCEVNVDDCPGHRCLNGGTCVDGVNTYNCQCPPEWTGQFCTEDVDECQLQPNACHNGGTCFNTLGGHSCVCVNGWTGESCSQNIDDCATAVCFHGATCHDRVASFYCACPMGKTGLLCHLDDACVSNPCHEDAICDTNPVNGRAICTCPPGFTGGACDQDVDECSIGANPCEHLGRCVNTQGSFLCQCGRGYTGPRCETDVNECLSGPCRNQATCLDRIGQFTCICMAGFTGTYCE
Procedure: (§1) After washing, the plate was blocked using 4% Marvel skimmed milk in PBS for 30 minutes on shaker. A concentration series of the Nanobodies in Table B-5 (25 pM to 2000 nM) was added in 100 microliter 2% Marvell/PBS and incubated for 1 h on shaker. After washing the Nanobodies were detected with 100 microliter 1:2500 R-anti-VHH (1:2500) in 2% Marvell/PBS and 100 microliter 1:5000 DAMPO in 2% Marvell/PBS for 1 h on shaker. PO was detected with 100 microliter OPD and stopped with 50 microliter H2SO4. Quantification was performed at 490 nm in a plate reader.

[2] = molecular target: T2, recombinant human Notch-1/Fc Chimera (R&D Systems Cat No 3647-TK) (human, UniProt P46531 19-526); assay: ELISA: human Notch-1 coated at 2 ug/mL, Nanobody series 25 pM-2000 nM, detection by rabbit anti-VHH and DAMPO, OD 490 nm
T2 construct: Bought reagent; also called rhNotch-1/hFc; rhNotch-1; not shown: human Fc (hFc)
Procedure: as §1

[3] = molecular target: T3, human DLL4 (rhDLL4, R&D Systems Cat #1506-D4-050) (human, UniProt Q9NR61 27-529); assay: ELISA: rhDLL4 coated at 5 ug/mL, Nanobody series, detection by mouse anti-Myc tag (9E10) and DAMPO, OD 490 nm
T3 construct: extracellular domain; Bought reagent
T3 sequence (Q9NR61 27-529): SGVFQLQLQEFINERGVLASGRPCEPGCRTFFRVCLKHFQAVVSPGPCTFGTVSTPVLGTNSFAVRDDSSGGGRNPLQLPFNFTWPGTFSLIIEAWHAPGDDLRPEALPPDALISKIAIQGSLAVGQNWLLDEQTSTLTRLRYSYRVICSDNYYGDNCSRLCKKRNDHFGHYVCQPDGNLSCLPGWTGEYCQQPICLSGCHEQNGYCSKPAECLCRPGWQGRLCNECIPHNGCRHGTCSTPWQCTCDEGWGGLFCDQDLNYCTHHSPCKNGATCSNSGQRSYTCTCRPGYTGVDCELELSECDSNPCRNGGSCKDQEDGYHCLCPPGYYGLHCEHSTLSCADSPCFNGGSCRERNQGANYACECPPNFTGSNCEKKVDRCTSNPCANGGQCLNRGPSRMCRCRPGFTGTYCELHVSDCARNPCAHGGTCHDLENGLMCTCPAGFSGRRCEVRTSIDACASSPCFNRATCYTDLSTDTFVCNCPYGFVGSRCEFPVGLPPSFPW
Procedure: Two rounds of phage display selection were performed similarly as described above. Binding assays were performed. In short: Maxisorp plate was coated with 100 ul 5 ug/ml of rhDLL4 (R&D systems) in PBS O/N at 4° C. After washing the plate was blocked with 4% MPBS for 30 minutes hour on shaker. A concentration series of Nanobody (1-1000 nM) was added in 100 ul 2% Marvell/PBS and incubate for 1 hour on shaker. Nanobody was detected with 100 ul 1:5000 Mouse-anti-MycTag (9E10) in 2% Marvell/PBS and with 100 ul 1:5000 DAMPO in 2% Marvell/PBS for 1 hour on shaker. After washing PO was detected with 100 ul OPD and stopped with 50 ul H2SO4. Quantification was performed at 490 nm in a plate reader.

[4] = molecular target: T2, recombinant human Notch-1/Fc Chimera …; assay: ELISA: human Notch-1/Fc coated at 2 ug/mL, Nanobody series, detection by mouse anti-Myc tag and DAMPO, OD 490 nm
Procedure: After washing the plate was blocked using 4% Marvel skimmed milk in PBS for 30 minutes on shaker. A concentration series of Nanobody (1 to 1000 nM) was added in 100 microliter 2% Marvell/PBS and incubated for 1 h on shaker. […] PO was detected with 100 microliter OPD and stopped with 50 microliter H2SO4. Quantification was performed at 490 nm in a plate reader.

[5] = molecular target: T4, rat Jagged-1 (rrJagged-1, R&D Systems Cat #599-JG) (rat, UniProt Q63722 34-1067); assay: ELISA: rat Jagged-1 (rrJagged-1) coated at 2 ug/mL, Nanobody series, detection by mouse anti-Myc tag and DAMPO, OD 490 nm
T4 construct: extracellular domain; Bought reagent; also called non-biotinylated Jagged-1; cold-jagged1
Procedure: Two rounds of phage display selection were performed similarly as described above. Binding assays were performed. In short: Maxisorp plate was coated with 100 ul 2 ug/ml of rrJagged-1 (R&D systems) in PBS O/N at 4 C. After washing the plate 4× with PBS the plate was blocked with 4% Marvel in PBS for 30 minutes on shaker. A concentration series of Nanobody (1-1000 nM) was added in 100 ul 2% Marvell/PBS and incubate for 1 hour on shaker. After washing the plate 4× with PBS the Nanobodies were detected with 100 ul 1:5000 Mouse-anti-MycTag in 2% Marvell/PBS for 1 hour and 100 ul 1:5000 DAMPO in 2% Marvell/PBS for 1 hour. After washing the DAMPO was detected with 100 ul OPD, stopped with 50 ul H2SO4 and quantification was performed at 490 nm in a plate reader.

EC50 (read off the curve) [1]: 5 nM
binding result (human Notch-3): no binding (tested: 2000 nM)
binding result [2]: no binding (tested: 2000 nM)
B1: 181D2 (VHH)
VHH: EVQLVESGGGLVQPGGSLRLSCAASGRINSMNWYRQAPGKEREWVASITSSGTTIYADSVKGRITISEDNAKNTVYLQMNSLKTEDTGVYYCAANLRNARGSYYGQGTQVTVSS
notes: Nanobody against human Notch-2, 'generated as above'

EC50 (read off the curve) [1]: 5 nM
binding result (human Notch-3): no binding (tested: 2000 nM)
binding result [2]: no binding (tested: 2000 nM)
B6: 181D3 (VHH)
VHH: EVQLVESGGGLVQAGGSLRLSCAASTNVSSFNTMSWYRQSPRKQREWVATITDGDNTHYADSVKGRFTTSRDNAKNLLYLQMNSLKPEDTAVYYCTGWRATSGGSYGQGTQVTVSS
notes: as for B1

binding result (human Notch-3): no binding (tested: 2000 nM)
binding result [2]: no binding (tested: 2000 nM)
B7: 181E3 (VHH)
VHH: EVQLVESGGGLVQPGGSLRLSCAASGFTFGDYAMNWVRQAPGKGLEWVSSISAGGYSTTYADSVKGRFTISRDNAKNTLYLQMNSLNPEDTAVYYCARGDWRYGSRGQGTQVTVSS
notes: as for B1

EC50 (read off the curve) [1]: 2 nM
binding result (human Notch-3): no binding (tested: 2000 nM)
binding result [2]: no binding (tested: 2000 nM)
B8: 181B3 (VHH)
VHH: EVQLVESGGGLVQAGGSLRLSCVVSGSILSINTMDWYRQAPGKQREWFAGLSDGGRANYADSVKDRFTIARDNAKNTVYLQMNSLKPGDTAIYYCAADLWDRGATTGRYWGQGTQVTVSS
notes: detection there was with anti-VHH

binding result [3]: binds
B9: 179F7 (VHH)
VHH: EVQLVESGGGLVQSGGSLSLSCAASGSVLRINDMGWYRQAPGKTREMVATITRSGVLNYTDSVKGRFTVSRDDAKNTVYLQMSSLKPEDTAVYSCFANIVIRSSGYFNRYWGQGTLVTVSS
notes: Nanobody against human DLL4; not shown: C-terminal c-myc tag and His6 tag coded by vector pAX50

binding result (human Notch-3): no binding (tested: 2000 nM)
binding result [2]: no binding (tested: 2000 nM)
B11: 4H2 (VHH)
VHH: EVQLVESGGGLVQAGGSLRLSCATSGFTFSRFDMSWFRQAPGKQREFIATIFSGGDTDYIDSVKGRFTISRDNAKNTVYLQMNSLKPEDTAVYYCCPLGIEYAWGQGTQVTVSS

binding result (human Notch-3): no binding (tested: 2000 nM)
EC50 (read off the curve) [2]: 10 to 16 nM
B19: 180F8 (VHH)
VHH: EVQLVESGGDLVQPGGSLRLSCTTSGTVFSINDMGWSRQAPGKGRELVASISSEGTTIYADAAKGRFTISRDNSKNTVYLEMNSLKPDDTAVYYCRVVDPLRGKLYWGQGTQVTVSS
notes: Nanobody against human Notch-1

Further lines, the binder ahead of its results:

B2: 179F6 (VHH)
VHH: EVQLVESGGGLVQAGGSLRLSCAASGSDFSGFLLGWYRQPPGKQRELIAQTTDGGRTNYGDSVKGRFTISRDNAKNTWYLQMDSLKPEDTGVYYCNTFPLTSWGQGTQVTVSS
notes: as for B9
binding result [3]: binds

B3: 179D12 (VHH)
VHH: EVQLVESGGGLVQAGGSLRLSCVASGDTSEIYDMGWFRQAPGKEREFVSSIHWGGRGTNYTDSVKGRFTISKDNAKNMVYLQMNSLKPEDTAVYYCAATRLIVYTPTGFRQYFDWGQGTQVTVSS
notes: as for B9
binding result [3]: binds

B4: 179E6 (VHH)
VHH: EVQLVESGGGLVQAGGSLRLSCIASGDTSEIYDMGWFRQAPGKEREFVSSIHWRGRGTNYTDSVEGRFTISKDNAKNMVYLQMNSLKPEDTAVYYCAATRLIVYTPTGFRQYFDWGQGAQVTVSS
notes: as for B9
binding result [3]: binds

B5: 179A10 (VHH)
VHH: EVQLVESGGGLVQAGGSLRLSCVASGDTSEIYDMGWFRQAPGKEREFVSSIHWGGRGTNYTDSVKGRFTISKDNAKNMVHLQMNSLKPEDTAVYYCAATRLIVYTPTGFRQYFDWGQGTQVTVSS
notes: as for B9
binding result [3]: binds

B10: 180A4 (VHH)
VHH: EVQLVESGGGLVQPGGSLRLSCAASGRTSSPIAMGWFRQAPGKEREFVSGITWSGAYTHYANSVKGRFTISRDSAKNTVYLQMNSLKPEDTAVYYCTTATNSTTGYDYWGQGTQVTVSS
EC50 (read off the curve) [4]: ~7 nM

B12: 180F4 (VHH)
VHH: EVQLVESGGGLVQAGDSLRLSCAVSGGSFSSYTMGWVRQAPGKEREAVASIWRSGGNTYYADSVKGRFTVSRDNAKHTVYLQMNSLKPEDTAVYYCAAASFAPGSRGYDYWGQGTQVTVSS
EC50 (read off the curve) [4]: ~20 nM

B13: 50C4 (VHH)
VHH: EVQLVESGGDLVQPGGSLRLSCAASGFTFSTYYMSWVRQAPGKGLEWVSGIYSDGSNTYYADSVKGRFTISRDNAKNTLYLQMNSLKSEDTAVYYCTRPVVVAGSPVSYEYDYIGQGTQVTVSS
notes: Nanobody against human Notch-3
EC50 (read off the curve) (human Notch-3): ~2 nM

B14: 50H9 (VHH)
VHH: EVQLVESGGDLVQPGGSLRLSCAASGFTFSTYYMSWVRQAPGKGLEWVSGIYSDGSNTYYADSVKGRFTISRDNAKNTLYLQMNSLKSEDTAVYYCTRPVVVAGSPVSYEYDYIGQGTQVTVSS
notes: as for B13
EC50 (read off the curve) (human Notch-3): ~2 nM

B15: 178A7 (VHH)
VHH: EVQLVESGGGLVQPGGSLRLSCATSGVIFSTAAMGWYRQAPGKSRVLVARMFSDGRTIYAESVKRRFTISRDNAKNTVYLQMNSLEPEDTAVYYCNALQFGAVYWGQGTQVTVSS
notes: Nanobody against rat Jagged-1; not shown: C-terminal c-myc tag and His6 tag coded by vector pAX50
EC50 (read off the curve) [5]: ~20 nM

B16: 180C1 (VHH)
VHH: EVQLVESGGDLVQPGGSLRLSCAASRTVFSISDMGWSRQAPGKERELVASISSDNYTVYADAAKGRFTISRDNSKNTVYLEMNSLKPDDTAVYYCRVVDPLRGKLYWGQGTQVTVSS
EC50 (read off the curve) [4]: ~20 nM

B17: 180B3 (VHH)
VHH: EVQLVESGGDLVQPGGSLRLSCAASGTVFSNNDMGWSRQAPGKERELVASFTSGGNTVYADAAKGRFTISRDNSKNTVYLEMNSLKPDDTAVYYCRVVDLLRGKLYWGQGTQVTVSS
EC50 (read off the curve) [4]: ~6 nM

B18: 180F10 (VHH)
VHH: EVQLVESGGDLVQPGGSLRLSCAASATVFSNSDMGWSRQAPGKERELVASITTDGNTLYADAAKGRFAIYRDNSKNTVYLEMNSLKPDDTAVYYCRVVDLLRGKLYWGQGTQVTVSS
EC50 (read off the curve) [4]: ~5 nM
